Results on seven molecules are retold here after US20170247441A1 (Hoffmann-La Roche, published 2017).

The target in experiment [1] is T1, ANG2 (R&D Systems, Cat#623-CF) (human, UniProt O15123 19-496).
T1 sequence: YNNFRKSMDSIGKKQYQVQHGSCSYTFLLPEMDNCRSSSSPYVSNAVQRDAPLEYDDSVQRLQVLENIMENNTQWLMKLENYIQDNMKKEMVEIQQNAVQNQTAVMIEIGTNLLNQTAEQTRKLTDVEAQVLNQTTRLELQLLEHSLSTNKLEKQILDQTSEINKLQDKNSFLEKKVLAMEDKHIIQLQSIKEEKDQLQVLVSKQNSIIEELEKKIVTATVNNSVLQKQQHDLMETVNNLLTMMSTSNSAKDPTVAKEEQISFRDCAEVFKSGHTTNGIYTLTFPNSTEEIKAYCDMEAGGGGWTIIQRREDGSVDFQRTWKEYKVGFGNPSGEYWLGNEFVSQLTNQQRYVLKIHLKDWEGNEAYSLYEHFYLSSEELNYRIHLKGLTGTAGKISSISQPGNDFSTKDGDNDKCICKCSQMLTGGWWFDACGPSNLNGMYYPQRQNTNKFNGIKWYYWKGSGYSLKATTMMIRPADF
Nature of the experiment: cell-based or functional assay.

Experiment [2] concerns the target T2, cynomolgus ANG2-RBD-Fc-region fusion (cynomolgus).
T2 construct: domain: RBD
The experiment can be described thus: SPR, cynomolgus ANG2-RBD-Fc captured, 1:1 model. Background: Surface plasmon resonance follows binding to a sensor surface in real time, without labels.
Method: (§1) HBS-N (10 mM HEPES, 150 mM NaCl pH 7.4, GE Healthcare) was used as running buffer during the immobilization procedure. For the following kinetic characterization, sample and running buffer was HBS-P (10 mM HEPES, 150 mM NaCl pH 7.4, 0.05% Surfactant P20; GE Healthcare). The flow cell was set to 25° C.—and the sample block was set to 12° C.—and primed with running buffer twice prior to kinetic characterization.
(§2) Association was measured by injection of the Cross-Fabs in various concentrations in solution for 90 sec. at a flow rate of 90 μl/min starting with 300 nM in serial 1:3 dilutions. The dissociation phase was monitored for up to 600 sec. and triggered by switching from the sample solution to running buffer. All surfaces were regenerated by 60 sec. washing with a 3 M MgCl₂ solution at a flow rate of 5 μl/min. Bulk refractive index differences were corrected by subtracting the response obtained from an anti-human IgG antibody (Fc) surface. Blank injections were also subtracted (=double referencing). For calculation of KD and other kinetic parameters the Langmuir 1:1 model was used.

In experiment [3] the target is T3, human ANG2-RBD-Fc-region fusion (human, UniProt O15123 275-496, limits assumed).
T3 construct: not shown: Fc-region
T3 sequence: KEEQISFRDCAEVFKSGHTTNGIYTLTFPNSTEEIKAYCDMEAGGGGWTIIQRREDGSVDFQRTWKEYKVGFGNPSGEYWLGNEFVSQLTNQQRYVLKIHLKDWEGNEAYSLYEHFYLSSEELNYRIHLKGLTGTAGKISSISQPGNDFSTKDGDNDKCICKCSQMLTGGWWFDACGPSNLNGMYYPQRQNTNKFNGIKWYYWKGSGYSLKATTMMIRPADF
The experiment can be described thus: SPR, human ANG2-RBD-Fc captured, 1:1 model.

Experiment [4] addresses T3, human ANG2-RBD-Fc-region fusion. Nature of the experiment: SPR, human ANG2-RBD-Fc captured, 1:1 model. The source holds these as a separate data set.
Method: as §1, §2
Experiment [5] shares this target. Nature of the experiment: SPR, human ANG2; bivalent CrossMab, avidity.
Experiment [6] shares this target. The experiment can be described thus: SPR, human ANG2; bivalent CrossMab, avidity. The source holds these as a separate data set.
Experiment [7] has the same target. Nature of the experiment: SPR, human ANG2; ANG2/VEGF bispecific CrossMab.

Where a chain is given by its changes, count along the chain named. In names and notes the source's numbering stands.

B1: XAng2-0041 (Fab)
heavy: not shown
light: SYVLTQPPSVSVAPGQTARITCGGNNIGSKSVHWYQQKPGQAPVLVVYDDSDRPSGIPERFSGSNSGNTATLTISRVEAGDEADYYCQVWDSSSDHWVFGGGTKLTVLSSASTKGPSVFPLAPSSKSTSGGTAALGCLVKDYFPEPVTVSWNSGALTSGVHTFPAVLQSSGLYSLSSVVTVPSSSLGTQTYICNVNHKPSNTKVDKKVEPKSC
notes: CrossFab CL-CH1, valency 1; differences VH: S100dP, G100jA, T28N, T30A; VL: wt
As a reminder, the Kd is the free concentration of one partner at which half of the binding sites on the other are occupied at equilibrium, for simple one-to-one binding. As a reminder, the koff is the first-order rate constant of dissociation. High values mean fast dissociation, low ones slow dissociation. What is called kon is the second-order rate constant of association. In general, t½ refers to the time in which the quantity being followed falls by half. With B1, the “relative biological activity [%]” value in experiment [1] was 838%. Besides, in experiment [2], the Kd worked out at 2 nM, the koff worked out at 0.0036 s⁻¹, the kon came to 2.14e+06 M⁻¹ s⁻¹ and the “t½” value came to 3.22 min. In addition, in experiment [3], the koff was 0.00317 s⁻¹, the kon is 3.85e+06 M⁻¹ s⁻¹ and the “t1/2” value was 3.65 min. In addition, in experiment [4], the koff came out at 0.00317 s⁻¹, the kon turned out to be 3.85e+06 M⁻¹ s⁻¹ and the “t½” value was 3.65 min.

B2: XAng2-0099 (antibody)
heavy: not shown
light: B1 light
notes: CrossMab CL-CH1, valency for ANG2 2; differences VH: S100dP, G100jA, T28N, T30A; VL: wt
In experiment [5], B2 showed a koff of 0.00011 s⁻¹ and a kon of 2.61e+07 M⁻¹ s⁻¹. In addition, in experiment [6], the koff was determined as 0.00011 s⁻¹, the kon worked out at 2.61e+07 M⁻¹ s⁻¹ and the “t1/2 (S)” value worked out at 105 min.

B3: XAng2-0100 (antibody)
heavy: not shown
light: B1 light with D50T
notes: CrossMab CL-CH1, valency for ANG2 2; differences VH: S100dP, G100jA, T28N, T30A; VL: D50T
In experiment [5], B3 returned a koff of 0.000167 s⁻¹ and a kon of 2.06e+07 M⁻¹ s⁻¹. For the same molecule, in experiment [6], the koff came out at 0.000167 s⁻¹, the kon came to 2.06e+07 M⁻¹ s⁻¹ and the “t1/2 (S)” value came to 69.3 min.

B4: XAng2-0090 (Fab)
heavy: not shown
light: B1 light with D50T
notes: CrossFab CL-CH1, valency 1; differences VH: S100dP, G100jA, T28N, T30A; VL: D50T
Turning to B4, the “relative biological activity [%]” value in experiment [1] stood at 706%. Also, in experiment [2], binding was characterised by a dissociation constant (Kd) of 2 nM, the koff came out at 0.00308 s⁻¹, the kon is 2.02e+06 M⁻¹ s⁻¹ and the “t½” value was determined as 3.75 min. In addition, in experiment [3], the koff stood at 0.00253 s⁻¹, the kon came out at 2.16e+06 M⁻¹ s⁻¹ and the “t1/2” value is 4.57 min. In addition, in experiment [4], the koff was 0.00253 s⁻¹, the kon came to 2.16e+06 M⁻¹ s⁻¹ and the “t½” value came to 4.57 min.

B5: Xang2-0166 (bispecific antibody, human IgG1, kappa, L234A L235A)
heavy 1: not shown
light 1: B1 light with D50T
heavy 2: EVQLVESGGGLVQPGGSLRLSCAASGYDFTHYGMNWVRQAPGKGLEWVGWINTYTGEPTYAADFKRRFTFSLDTSKSTAYLQMNSLRAEDTAVYYCAKYPYYYGTSHWYFDVWGQGTLVTVSSASTKGPSVFPLAPSSKSTSGGTAALGCLVKDYFPEPVTVSWNSGALTSGVHTFPAVLQSSGLYSLSSVVTVPSSSLGTQTYICNVNHKPSNTKVDKKVEPKSCDKTHTCPPCPAPEAAGGPSVFLFPPKPKDTLMASRTPEVTCVVVDVSHEDPEVKFNWYVDGVEVHNAKTKPREEQYNSTYRVVSVLTVLAQDWLNGKEYKCKVSNKALGAPIEKTISKAKGQPREPQVYTLPPCRDELTKNQVSLWCLVKGFYPSDIAVEWESNGQPENNYKTTPPVLDSDGSFFLYSKLTVDKSRWQQGNVFSCSVMHEALHNAYTQKSLSLSPGK
light 2: not shown
notes: ANG2/VEGF bispecific CrossMab CL-CH1, valency for ANG2 1; ANG2 VH: S100dP, G100jA, T30A, T28N, D100bS; VL: D50T; VEGF: wt2
On to B5, for which, in experiment [7], the Kd worked out at 49 nM, the koff came out at 0.0135 s⁻¹, the kon turned out to be 275000 M⁻¹ s⁻¹ and the “t1/2” value amounted to 0.85 min.

B6: XAng2-0101 (antibody)
heavy: not shown
light: B1 light with D50T
notes: CrossMab CL-CH1, valency for ANG2 2; differences VH: S100dP, G100jA, T28N, T30A, D100bE; VL: D50T
In experiment [5], B6 registered a koff of 0.00012 s⁻¹ and an on-rate constant (kon) of 1.83e+07 M⁻¹ s⁻¹. Further, in experiment [6], the koff came to 0.00012 s⁻¹, the kon was determined as 1.83e+07 M⁻¹ s⁻¹ and the “t1/2 (S)” value came to 96.2 min.

B7: XAng2-0075 (Fab)
heavy: not shown
light: B1 light with D50T
notes: CrossFab CL-CH1, valency 1; differences VH: S100dP, G100jA, T28N, T30A, D100bS; VL: D50T
B7: in experiment [1], the “relative biological activity [%]” value turned out to be 128%. In experiment [2], the dissociation constant (Kd) was 24 nM, the koff came out at 0.0325 s⁻¹, the kon amounted to 1.34e+06 M⁻¹ s⁻¹ and the “t½” value was found to be 0.35 min. In experiment [3], the koff was 0.031 s⁻¹, the association rate constant (kon) came out at 2.22e+06 M⁻¹ s⁻¹ and the “t1/2” value was determined as 0.367 min. Also, in experiment [4], the koff was 0.031 s⁻¹, the kon turned out to be 2.22e+06 M⁻¹ s⁻¹ and the “t½” value is 0.367 min.
